“Also recorded” adds a separate entry of the source.
What was measured:
humans = conditions: 1.3 GBq (35 mCi) dose; cited from earlier work
Wistar rats = assay: Acute toxicity test after intravenous and intraperitoneal administration in the rat (Example 5); assay type: in vivo; conditions: male Wistar rats, intravenous injection
Protocol: Species: Wistar rats RjHan: Wi (free of specific pathogens)
Number and sex and Weight: 6 healthy adult rats (males), average weight 300 g
3 groups of male rats: • Group 1 (“G5”): 2 rats (1 and 2) receiving 0.1 ml of labeled solution of dendrimer alone, one via intravenous administration, the other intraperitoneally 1 • Group 2 (“G5-HLS”): 2 rats (3 and 4) receiving 0.1 ml of the solution of the test item “G5 dendrimer {1-nitro-1H-imidazole-methyl -1,2,3-triazol-methyl-di(2-pycolyl)amine}”, one via intravenous administration, the other intraperitoneally • Group 3 (“HLS”): 2 rats (n ° 4 and 5) receiving 0.1 ml of the labeled 1-nitro-1H-imidazole-methyl -1,2,3-triazole-methyl-di-(2-pycolyl) amine, one via intravenous administration, the other intraperitoneally

[1] = Biodistribution after intravenous (intravascular) administration in the rat (Example 5); assay type: in vivo
Text: (§1) The removed organs (brain, kidney, liver, heart, intestine, lung, gonads, blood, urine) were weighed and their activities were counted on NaI gamma camera.

[2] = Biodistribution after in situ direct intrahepatic injection in the rat (Example 6); assay type: in vivo
Protocol: They were autopsied and major organs were observed macroscopically.
as §1
The assessment of radioactivity was carried out on the various organs and the carcass alone, urine and whole blood.
FIG. 6 is a scintigraphic image of biodistribution after injection: it will be noted that only the liver, stomach and intestines are discernible.

| Substance | systemic toxicity in humans (humans) | precipitation or thrombus formation at the injection site (Wistar rats) | liver binding after intravascular administration [1] | retention at the site of introduction ([2]; male rat, laparotomy and direct injection into a liver segment, listed as dendrimer conjugate) | hepatic binding rate ([2]; rat, direct intrahepatic injection, sacrifice at 60 min, 99mTc-labelled) | biodistribution outside the targeted site ([2]; rat, in situ administration at a hepatic lobe, scintigraphy (FIG. 6)) | initial injected dose by hepatic mass charged with the test item ([2]; rat, in situ intrahepatic injection, liver) |
| --- | --- | --- | --- | --- | --- | --- | --- |
| rhenium-188 hydroxyethylidene diphosphonate | no significant toxicity | – | – | – | – | – | – |
| Dendrimer G5 {1-nitro-1H-Imidazole-methyl-1,2,3-triazol-methyl-di-(2-pycolyl)amine} | – | no precipitation was observed or thrombus formation | 1.53 % DIg | remains almost stable at the site of introduction; also recorded: has not moved a lot from the site of its deposition | 53.7% | negligible | 33.5 % DIg |
